In paper PMC8373069 one finds binding signal, binding signal (s (half-life on abasic sites)) and MUTYH (20 nM) excision of A opposite 8-oxoG in 50 nM 37 bp duplex, with 50 nM UV-DDB against without, up to 4 h data, which are given here for three substances.

Data set [1] concerns the target T1, MUTYH (His tag cleaved) (mouse) (UniProt Q99P21).
T1 sequence: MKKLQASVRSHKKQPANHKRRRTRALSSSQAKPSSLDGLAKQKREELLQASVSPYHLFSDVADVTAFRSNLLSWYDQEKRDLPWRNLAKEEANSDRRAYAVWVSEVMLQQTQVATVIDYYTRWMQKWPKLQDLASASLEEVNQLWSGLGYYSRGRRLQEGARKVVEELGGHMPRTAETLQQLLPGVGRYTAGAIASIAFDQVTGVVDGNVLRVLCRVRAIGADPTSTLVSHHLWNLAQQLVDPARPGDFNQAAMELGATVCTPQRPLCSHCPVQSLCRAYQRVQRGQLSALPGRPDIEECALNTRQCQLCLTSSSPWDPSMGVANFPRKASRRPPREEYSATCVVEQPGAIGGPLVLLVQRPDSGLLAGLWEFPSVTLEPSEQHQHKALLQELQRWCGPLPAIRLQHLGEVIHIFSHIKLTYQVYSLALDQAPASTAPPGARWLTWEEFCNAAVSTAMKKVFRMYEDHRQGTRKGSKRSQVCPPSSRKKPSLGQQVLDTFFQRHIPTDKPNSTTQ
Put plainly: EMSA. Particulars: 20 nM MUTYH, 8 nM DNA, no UV-DDB; strand 1 position 21 = 8-oxoG (written G); strand 2 position 17 = tetrahydrofuran abasic analogue (written N), opposite the 8-oxoG; EMSA: 20 mM HEPES pH 7.5, 150 mM NaCl, 5 mM DTT, 0.5 mg/ml BSA, 5% glycerol, RT; 5% native gel in 1/2x TBE at 4 C.

In data set [2] the test system is His6-MUTYH (mouse). Put plainly: single-molecule DNA tightrope. Conditions: one tetrahydrofuran abasic site every 2 kb, EMSA: 20 mM HEPES pH 7.5, 150 mM NaCl, 5 mM DTT, 0.5 mg/ml BSA, 5% glycerol, RT, 5% native gel in 1/2x TBE at 4 C. (In EMSA bound probe runs differently from free probe, usually more slowly.)
Data set [3] has as its target mouse MUTYH, hexa-histidine tag cleaved with thrombin (mouse) (UniProt Q99P21).

“CCGAGTCATTCCTGCAGCGAGTCCATGGGAGTCAAAT / ATTTGACTCCCATGGANTCGCTGCAGGAATGACTCGG [THF8-oxoG37]” came in with a binding signal in data set [1] of over 80 % DNA bound.
In the case of THF array (tightrope DNA), the binding signal (s (half-life on abasic sites)) was determined as 590 in data set [2] (with UV-DDB, which promotes MUTYH dissociation) and 8800 in data set [2] (without UV-DDB).
As to “UV-DDB (DDB1–DDB2 heterodimer) (from UniProt Q16531 1-1140; Q92466 1-427) (complex)”, in data set [3], the MUTYH (20 nM) excision of A opposite 8-oxoG in 50 nM 37 bp duplex, with 50 nM UV-DDB against without, up to 4 h at 37°C is 4 to 5 fold.
